B1: OdhI from Corynebacterium glutamicum ATCC13032 (natural protein, UniProt Q8NQJ3 1-143, looked up)
chain: MSDNNGTPEPQVETTSVFRADLLKEMESSTGTAPASTGAENLPAGSALLVVKRGPNAGARFLLDQPTTTAGRHPESDIFLDDVTVSRRHAEFRINEGEFEVVDVGSLNGTYVNREPRNAQVMQTGDEIQIGKFRLVFLAGPAE
B2: full-length KGD from Mycobacterium smegmatis (enzyme, UniProt A0R2B1 1-1227, looked up)
chain: MSSSPSPFGQNEWLVEEMYRKFRDDPSSVDPSWHEFLVDYSPEPTTDSASNGRTTTAAPVTPPTPAPAPAPEPKAAPKPAAKTEAKPAKPAKSATPAKGDESQILRGAAAAVVKNMNASLEVPTATSVRAIPAKLMIDNRVVINNHLKRTRGGKISFTHLLGYAIVQAVKKFPNMNRHFAVVDGKPTAITPAHTNLGLAIDLQGKDGNRSLVVAAIKRCETMRFGQFIAAYEDIVRRARDGKLTAEDFSGVTISLTNPGTLGTVHSVPRLMQGQGAIIGAGAMEYPAEFQGASEERIADLGIGKLITLTSTYDHRIIQGAESGDFLRTIHQLLLDDDFFDEIFRELGIPYEPVRWRTDNPDSIEDKNARVIELIAAYRNRGHLMADIDPLRLDNTRFRSHPDLDVNSHGLTLWDLDREFKVDGFAGVQRKKLRDILSVLRDAYCRHVGVEYTHILEPEQQRWIQERVETKHDKPTVAEQKYILSKLNAAEAFETFLQTKYVGQKRFSLEGAETVIPMMDAVIDQCAEHGLDEVVIAMPHRGRLNVLANIVGKPYSQIFSEFEGNLNPSQAHGSGDVKYHLGATGTYIQMFGDNDIEVSLTANPSHLEAVDPVLEGLVRAKQDLLDTGEEGSDNRFSVVPLMLHGDAAFAGQGVVAETLNLALLRGYRTGGTIHIVVNNQIGFTTAPTDSRSSEYCTDVAKMIGAPIFHVNGDDPEACAWVARLAVDFRQAFKKDVVIDMLCYRRRGHNEGDDPSMTQPYMYDVIDTKRGSRKAYTEALIGRGDISMKEAEDALRDYQGQLERVFNEVRELEKHEIEPSESVEADQQIPSKLATAVDKAMLQRIGDAHLALPEGFTVHPRVRPVLEKRREMAYEGRIDWAFAELLALGSLIAEGKLVRLSGQDTQRGTFTQRHAVIVDRKTGEEFTPLQLLATNPDGTPTGGKFLVYNSALSEFAAVGFEYGYSVGNPDAMVLWEAQFGDFVNGAQSIIDEFISSGEAKWGQLSDVVLLLPHGHEGQGPDHTSGRIERFLQLWAEGSMTIAMPSTPANYFHLLRRHGKDGIQRPLIVFTPKSMLRNKAAVSDIRDFTESKFRSVLEEPMYTDGEGDRNKVTRLLLTSGKIYYELAARKAKENREDVAIVRIEQLAPLPRRRLAETLDRYPNVKEKFWVQEEPANQGAWPSFGLTLPEILPDHFTGLKRISRRAMSAPSSGSSKVHAVEQQEILDTAFG
B3: OdhAΔ97 (domain or fragment, Corynebacterium glutamicum ATCC13032, UniProt Q8NRC3 98-1221, looked up)
chain: KLPEPGQTPIRGIFKSIAKNMDISLEIPTATSVRDMPARLMFENRAMVNDQLKRTRGGKISFTHIIGYAMVKAVMAHPDMNNSYDVIDGKPTLIVPEHINLGLAIDLPQKDGSRALVVAAIKETEKMNFSEFLAAYEDIVARSRKGKLTMDDYQGVTVSLTNPGGIGTRHSVPRLTKGQGTIIGVGSMDYPAEFQGASEDRLAELGVGKLVTITSTYDHRVIQGAVSGEFLRTMSRLLTDDSFWDEIFDAMNVPYTPMRWAQDVPNTGVDKNTRVMQLIEAYRSRGHLIADTNPLSWVQPGMPVPDHRDLDIETHNLTIWDLDRTFNVGGFGGKETMTLREVLSRLRAAYTLKVGSEYTHILDRDERTWLQDRLEAGMPKPTQAEQKYILQKLNAAEAFENFLQTKYVGQKRFSLEGAEALIPLMDSAIDTAAGQGLDEVVIGMPHRGRLNVLFNIVGKPLASIFNEFEGQMEQGQIGGSGDVKYHLGSEGQHLQMFGDGEIKVSLTANPSHLEAVNPVMEGIVRAKQDYLDKGVDGKTVVPLLLHGDAAFAGLGIVPETINLAKLRGYDVGGTIHIVVNNQIGFTTTPDSSRSMHYATDYAKAFGCPVFHVNGDDPEAVVWVGQLATEYRRRFGKDVFIDLVCYRLRGHNEADDPSMTQPKMYELITGRETVRAQYTEDLLGRGDLSNEDAEAVVRDFHDQMESVFNEVKEGGKKQAEAQTGITGSQKLPHGLETNISREELLELGQAFANTPEGFNYHPRVAPVAKKRVSSVTEGGIDWAWGELLAFGSLANSGRLVRLAGEDSRRGTFTQRHAVAIDPATAEEFNPLHELAQSKGNNGKFLVYNSALTEYAGMGFEYGYSVGNEDSIVAWEAQFGDFANGAQTIIDEYVSSGEAKWGQTSKLILLLPHGYEGQGPDHSSARIERFLQLCAEGSMTVAQPSTPANHFHLLRRHALSDLKRPLVIFTPKSMLRNKAAASAPEDFTEVTKFQSVINDPNVADAAKVKKVMLVSGKLYYELAKRKEKDGRDDIAIVRIEMLHPIPFNRISEALAGYPNAEEVLFVQDEPANQGPWPFYQEHLPELIPNMPKMRRVSRRAQSSTATGVAKVHQLEEKQLIDEAFEA
B4: full-length OdhA from Corynebacterium glutamicum ATCC13032 (enzyme, UniProt Q8NRC3 1-1221, looked up)
chain: MSSASTFGQNAWLVDEMFQQFQKDPKSVDKEWRELFEAQGGPNTTPATTEAQPSAPKESAKPAPKAAPAAKAAPRVETKPADKTAPKAKESSVPQQPKLPEPGQTPIRGIFKSIAKNMDISLEIPTATSVRDMPARLMFENRAMVNDQLKRTRGGKISFTHIIGYAMVKAVMAHPDMNNSYDVIDGKPTLIVPEHINLGLAIDLPQKDGSRALVVAAIKETEKMNFSEFLAAYEDIVARSRKGKLTMDDYQGVTVSLTNPGGIGTRHSVPRLTKGQGTIIGVGSMDYPAEFQGASEDRLAELGVGKLVTITSTYDHRVIQGAVSGEFLRTMSRLLTDDSFWDEIFDAMNVPYTPMRWAQDVPNTGVDKNTRVMQLIEAYRSRGHLIADTNPLSWVQPGMPVPDHRDLDIETHNLTIWDLDRTFNVGGFGGKETMTLREVLSRLRAAYTLKVGSEYTHILDRDERTWLQDRLEAGMPKPTQAEQKYILQKLNAAEAFENFLQTKYVGQKRFSLEGAEALIPLMDSAIDTAAGQGLDEVVIGMPHRGRLNVLFNIVGKPLASIFNEFEGQMEQGQIGGSGDVKYHLGSEGQHLQMFGDGEIKVSLTANPSHLEAVNPVMEGIVRAKQDYLDKGVDGKTVVPLLLHGDAAFAGLGIVPETINLAKLRGYDVGGTIHIVVNNQIGFTTTPDSSRSMHYATDYAKAFGCPVFHVNGDDPEAVVWVGQLATEYRRRFGKDVFIDLVCYRLRGHNEADDPSMTQPKMYELITGRETVRAQYTEDLLGRGDLSNEDAEAVVRDFHDQMESVFNEVKEGGKKQAEAQTGITGSQKLPHGLETNISREELLELGQAFANTPEGFNYHPRVAPVAKKRVSSVTEGGIDWAWGELLAFGSLANSGRLVRLAGEDSRRGTFTQRHAVAIDPATAEEFNPLHELAQSKGNNGKFLVYNSALTEYAGMGFEYGYSVGNEDSIVAWEAQFGDFANGAQTIIDEYVSSGEAKWGQTSKLILLLPHGYEGQGPDHSSARIERFLQLCAEGSMTVAQPSTPANHFHLLRRHALSDLKRPLVIFTPKSMLRNKAAASAPEDFTEVTKFQSVINDPNVADAAKVKKVMLVSGKLYYELAKRKEKDGRDDIAIVRIEMLHPIPFNRISEALAGYPNAEEVLFVQDEPANQGPWPFYQEHLPELIPNMPKMRRVSRRAQSSTATGVAKVHQLEEKQLIDEAFEA

What was measured:
[1] = molecular target: B4; test: cryo-EM structure
[2] = molecular target: the molecule itself; test: crystal structure
[3] = molecular target: the molecule itself; test: crystal structure; remark: listed apart in the source
[4] = molecular target: the molecule itself; test: AUC

Binder: B1
- stoichiometry N [1]: 1

Binder: B2
- stoichiometry N [2]: 6

Binder: B3
- stoichiometry N [3]: 6

Binder: B4
- stoichiometry N [4]: 6

— paper doi:10.1101/2023.02.23.529587 (bioRxiv, 2023)
